Tested on: F1*sub RNA substrate (template-directed ligation)
Test: fraction ligated after 30 min (ligated reads / total reads); higher = more ligase activity; sequences stand for … in GAGACCGCAACTGAAAAGTTGT…AGTTCTGCACGTAGAAGCAAAAGGC
Settings: 42 °C
Outline: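 Ribozyme variants were transcribed with T7 from PCR-amplified oligo-pool templates and gel-purified. Ligated and unligated bands, separated on gel, were reverse transcribed with barcoded primers and sequenced on a MiSeq, with core bases filtered at quality ≥20. Fraction ligated per variant was computed as ligated reads divided by total reads.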

Sequence	fraction ligated
TACACTTGTCGTAAACACTTTGGAGGGTTGA [3d678]	0.0486
TTCACTGTCGTAAGACCTTTGGATGGGTTGA [3d346]	0.795
TATACTTGTGTAAACACTTTGGATGGGTTGA [3d831]	0.799
TATCACTTGCGTAAGACCTTTGGTGGGTTGA [3d1669]	0.137
TATCCTTGTCGTAAGACACTTGGTGGGTTGA [3d1099]	0.265
ATCACTTGCGTAAGACCTTTGGATGGGTTGA [3d147]	0.757
TATCATTGTTAAGACACTTTGGATGGGTTGA [3d1172]	0.798
TATCCTTGTGTAAACACTTTGGATGGGTTGA [3d1003]	0.8
TATCACTTGGTAAGACACTTTGGAGGGTTGA [3d1595]	0.0523
TATCACTTCGTAAGAACTTTGGATGGGTTGA [3d1317]	0.868
ATCATTGTCGTAAGACACTTTGGAGGGTTGA [3d101]	0.12
TATACTTGTGTAAGACACTTGGATGGGTTGA [3d836]	0.756
ATCATTGTCGTAAGACACTTTGATGGGTTGA [3d99]	0.664
ATCACTTGTCGTAAGACACTTTGGTGGTTGA [3d267]	0.0134
TATCCTTGTCGTAAGCACTTGGATGGGTTGA [3d1068]	0.685
TATCACTTGTGTAGACACTTTGGATGGGTTGA [2d181]	0.871
TATACTTGTCGTAAGACACTTTGGATGGTTG [3d946]	0.0597
ATCACTTGTCGAAGACACTTTGATGGGTTGA [3d192]	0.655
TCACTTGTCGTAAGACACTTTGGATGGGTTA [3d22]	0.427
TATCACTGTCGTAAACACTTTGGATGGGTTG [3d1407]	0.83
TATACTTTCGTAAGACCTTTGGATGGGTTGA [3d803]	0.53
TATCACTTGTCGTAAAATTTGGATGGGTTGA [3d2059]	0.803
ATCACTTGTCGTAAACACTTTGGATGGTTGA [3d218]	0.557

Sequence	fraction ligated
TATCACTTGTGTAAGCACTTTGGTGGGTTGA [3d1759]	0.117
TATCATTGTCTAAGACATTTGGATGGGTTGA [3d1193]	0.778
TATCACTTGTCGTAAGACACTTTGATGGGTTA [2d287]	0.167
TATACTTGTCGAGACACTTTGGATGGGTTGA [3d857]	0.704
TATACTTGTCGTAAGACACTTTGATGGGTTG [3d937]	0.537
TATACTTGCGTAAGACACTTTGATGGGTTGA [3d822]	0.285
TATCACTTGTCTAAGACATTGGATGGGTTGA [3d1871]	0.796
TACACGTCGTAAGACACTTTGGATGGGTTGA [3d566]	0.266
TATCACTTGTCGTAACATTTGGATGGGTTGA [3d1995]	0.84
TATCACTTGCGTAAACACTTTGGATGGGTTA [3d1647]	0.777
TATCACTTGTCGTAAGCACTTGGATGGGTTGA [2d247]	0.756
TATCATTGTCGTAAGACACTTGGATGGGTTG [3d1275]	0.8
TATCACTTTCGTAAGACATTTGGATGGGTTG [3d1560]	0.811
TATCACTTGGTAAGACACTTGGATGGGTTGA [3d1592]	0.795
TATCATTGCGTAAGACACTTTGGATGGTTGA [3d1169]	0.0894
ATCACTTGCGTAAGACACTTTGGTGGGTTGA [3d151]	0.0301
TTCACTTGCGTAAGACATTTGGATGGGTTGA [3d379]	0.768
TATCACTGTCGTAAGACATTTGGATGGTTGA [3d1437]	0.606
TATCACTTTCGTAAGACATTTGATGGGTTGA [3d1555]	0.768
TATCACTTGTCGTAAAACTTTGGATGGGTTGA [2d234]	0.818
ATCACTTGTCGTAAGACATTTGATGGGTTGA [3d247]	0.0818
ATACTTGTCGAAGACACTTTGGATGGGTTGA [3d53]	0.268
TATCACTTGCGTAAGACACTTTGGAGGTTGA [3d1698]	0.0604

Sequence	fraction ligated
TATCCTTGTCGTAAGACCTTTGGATGGGTTA [3d1088]	0.347
ATCACTTGTTAAGACACTTTGGATGGGTTGA [3d156]	0.787
ATCACTTTCGTAAGACACTTTGGATGGTTGA [3d137]	0.191
TATCATTGTCGAAGACACTTTGGAGGGTTGA [3d1210]	0.0625
TATCCTTGTCGTAAAACTTTGGATGGGTTGA [3d1055]	0.792
TTCACTGTCGTAAGAACTTTGGATGGGTTGA [3d345]	0.788
TATCACTTGTCTAAGAATTTGGATGGGTTGA [3d1856]	0.794
TTCACTTGTCGTAAGCACTTTGGATGGGTTA [3d460]	0.0582
TTCACTTGTCGTAAGAACTTTGGATGGTTGA [3d467]	0.279
TACACTTGTCGAAGACACTTTGGATGGGTTGA [2d55]	0.603
TATCCTTGCGAAGACACTTTGGATGGGTTGA [3d986]	0.806
TATACTTGTCGTAAGAACTTTGATGGGTTGA [3d905]	0.794
TATCATTGTCGTAAGACACTTTGGTGGGTTA [3d1284]	0.0335
TATCTTGTCGTAAGACATTTGGATGGGTTGA [3d750]	0.806
TATCACTGCGTAAGACACTTTGGTGGGTTGA [3d1338]	0.119
TATCACTTGTCGAAGACATTTGGAGGGTTGA [3d1953]	0.021
TATCACTTGTCGTAGCACTTTGATGGGTTGA [3d2007]	0.761
TATCACTTGTCGTAAGACTTTGGTGGGTTGA [3d2109]	0.0656
TATACTTGTCGTAAACACTTTGATGGGTTGA [3d887]	0.182
TATACTTGTCAAGACACTTTGGATGGGTTGA [3d843]	0.705
TATCACTGCGAAGACACTTTGGATGGGTTGA [3d1329]	0.831
TATCACTTGTCGTAGACACTTGGAGGGTTGA [3d2038]	0.0635
TATCATTGTCGTAAGAACTTTGGATGGGTTG [3d1254]	0.815

Sequence	fraction ligated
TTCACTTGTCGTAAACACTTTGGATGGGTTGA [2d35]	0.646
TTCATTGTCGTAAGAACTTTGGATGGGTTGA [3d326]	0.149
TATCACTGTCGAAGACACTTTGGAGGGTTGA [3d1381]	0.104
TTACTTGCGTAAGACACTTTGGATGGGTTGA [3d281]	0.0196
TACACTTGTGTAAGACATTTGGATGGGTTGA [3d624]	0.392
TATACTGTCGTAAGACACTTTGGTGGGTTGA [3d791]	0.0244
ATCACTTGTCGTAAGACATTTGGTGGGTTGA [3d248]	0.00393
ATCCTTGTCGTAAGACACTTTGGATGGGTTA [3d84]	0.218
TATCATTGCGTAAGACACTTTGGATGGGTTA [3d1170]	0.447
TACATTTCGTAAGACACTTTGGATGGGTTGA [3d548]	0.0271
TATACTTGTGTAGACACTTTGGATGGGTTGA [3d830]	0.776
TTCACTTTCGTAAGACACTTTGGATGGTTGA [3d368]	0.0816
TATCACTTGTCGTAAGACCTTTGGAGGTTGA [3d2200]	0.049
TATCACTTGTCGTAAGAACTTGGATGGTTGA [3d2163]	0.0536
TATCCTTGTCGTAAGACACTTTGGTGGGTTG [3d1113]	0.0948
TATCACTTGTCGTAAACACTTTGGATGGGTTG [2d243]	0.827
TATCACTTGTCGTAAGAATTTGGAGGGTTGA [3d2155]	0.0724
TATCACTTGTGTAAGACACTTTGGATGGGTTGA [1d10]	0.859
TATCACTTGCGTAAGCATTTGGATGGGTTGA [3d1651]	0.83
TATCACTTGTCGTAAGACCTTGGATGGGTTG [3d2189]	0.79
TACATTGTCGTAAACACTTTGGATGGGTTGA [3d554]	0.0244
TATCATTGTCGTAAGACACTTTGGAGGGTTG [3d1288]	0.0338
TATCTTGCGTAAGACACTTTGGATGGGTTGA [3d741]	0.828

Sequence	fraction ligated
TATCACTGTCGTAAGACCTTTGATGGGTTGA [3d1427]	0.773
TATCACTTGTCTAAGCATTTGGATGGGTTGA [3d1848]	0.818
TATCATTGTCTAGACACTTTGGATGGGTTGA [3d1188]	0.765
TATCACTTTCGTAGACACTTTGGATGGGTTG [3d1518]	0.786
TATCACTTGTCTAAACACTTTGGATGGGTTA [3d1844]	0.758
TACACTTGTGTAAGACACTTTGGAGGGTTGA [3d628]	0.0881
TATCTTGTCGAAGACACTTTGGATGGGTTGA [3d744]	0.755
TATCACTTTCGTAAGACACTTTGTGGGTTGA [3d1569]	0.0262
TATCACTTGTGTAAGACATTTGGATGGGTTA [3d1784]	0.822
TATCCTTGTCGTAGCACTTTGGATGGGTTGA [3d1044]	0.774
TATCACTTGTCGTAAGAACTTGGATGGGTTA [3d2164]	0.404
ATCACTTGCGAAGACACTTTGGATGGGTTGA [3d142]	0.743
TATCACTTGTCGTAAGACCTTTGATGGGTTA [3d2194]	0.0671
TATCACTGTCTAGACACTTTGGATGGGTTGA [3d1359]	0.822
TATCACTTGTCGTAGACACTTTGGATGGTTGA [2d231]	0.678
ATCACTTGTGAAGACACTTTGGATGGGTTGA [3d157]	0.815
TATACTTGTCGTAAACACTTTGGATGGGTTGA [2d78]	0.493
TTCACTTGTCGTAGACACTTTGGATGGGTTG [3d441]	0.801
TATCCTTGTCGTAAGAACTTTGGATGGGTTG [3d1082]	0.779
TATACTTGTCGTGACACTTTGGATGGGTTGA [3d870]	0.708
